Bridge positions count the residues as written; N and C are the ends. Square brackets hold non-standard residues; d marks the D form. Bip = N[C@@H](Cc1ccc(-c2ccccc2)cc1)C(=O)O; Phe(4-Cl) = N[C@@H](Cc1ccc(Cl)cc1)C(=O)O; NMeF = CN[C@@H](Cc1ccccc1)C(=O)O; NMeE = CN[C@@H](CCC(=O)O)C(=O)O; hSer = N[C@@H](CCO)C(=O)O; NMeA = CN[C@@H](C)C(=O)O
B1: Ac*-F-V-D-T-T-F-(N-Me)A-B-(N-Me)A-E-S-P-C*-G-NH2 (peptide)
peptide: {CH2CO}-FVDTTF[NMeA][Bip][NMeA]ESPCG-NH2
modifications: thioether N-13
SMILES: CC(C)[C@@H]1NC(=O)[C@H](Cc2ccccc2)NC(=O)CSC[C@@H](C(=O)NCC(N)=O)NC(=O)[C@@H]2CCCN2C(=O)[C@H](CO)NC(=O)[C@H](CCC(=O)O)NC(=O)[C@H](C)N(C)C(=O)[C@H](Cc2ccc(-c3ccccc3)cc2)NC(=O)[C@H](C)N(C)C(=O)[C@H](Cc2ccccc2)NC(=O)[C@H]([C@@H](C)O)NC(=O)[C@H]([C@@H](C)O)NC(=O)[C@H](CC(=O)O)NC1=O
notes: also called 1-17; Ex. No. 1-17
B2: Ac*-F-V-A-T-T-F-(N-Me)A-B-(N-Me)A-K-A-P-C*-G-NH2 (peptide)
peptide: {CH2CO}-FVATTF[NMeA][Bip][NMeA]KAPCG-NH2
modifications: thioether N-13
SMILES: CC(C)[C@@H]1NC(=O)[C@H](Cc2ccccc2)NC(=O)CSC[C@@H](C(=O)NCC(N)=O)NC(=O)[C@@H]2CCCN2C(=O)[C@H](C)NC(=O)[C@H](CCCCN)NC(=O)[C@H](C)N(C)C(=O)[C@H](Cc2ccc(-c3ccccc3)cc2)NC(=O)[C@H](C)N(C)C(=O)[C@H](Cc2ccccc2)NC(=O)[C@H]([C@@H](C)O)NC(=O)[C@H]([C@@H](C)O)NC(=O)[C@H](C)NC1=O
notes: also called 1-22; Ex. No. 1-22
B3: Ac*-F-V-N-T-T-F-(N-Me)A-B-(N-Me)A-K-A-P-C*-G-NH2 (peptide)
peptide: {CH2CO}-FVNTTF[NMeA][Bip][NMeA]KAPCG-NH2
modifications: thioether N-13
SMILES: CC(C)[C@@H]1NC(=O)[C@H](Cc2ccccc2)NC(=O)CSC[C@@H](C(=O)NCC(N)=O)NC(=O)[C@@H]2CCCN2C(=O)[C@H](C)NC(=O)[C@H](CCCCN)NC(=O)[C@H](C)N(C)C(=O)[C@H](Cc2ccc(-c3ccccc3)cc2)NC(=O)[C@H](C)N(C)C(=O)[C@H](Cc2ccccc2)NC(=O)[C@H]([C@@H](C)O)NC(=O)[C@H]([C@@H](C)O)NC(=O)[C@H](CC(N)=O)NC1=O
notes: also called 1-23; Ex. No. 1-23
B4: Ac*-F-V-S-T-T-F-(N-Me)A-B-(N-Me)A-E-A-P-C*-G-NH2 (peptide)
peptide: FVSTTFAXAEAPCG
modifications: not fully specified; N-terminal acetyl (Ac*) joined by a sulfide bond to the side chain of Cys13 (cyclic); 7: L-(N-Me)Ala; 8: L-Bip; 9: L-(N-Me)Ala; C-terminal amide (NH2)
notes: also called 1-24; Ex. No. 1-24
B5: Ac*-F-V-P-T-T-B-(N-Me)A-B-(N-Me)A-E-A-P-C*-NHEt (peptide)
peptide: {CH2CO}-FVPTT[Bip][NMeA][Bip][NMeA]EAPC-NHEt
modifications: thioether N-13
notes: also called 3-3; Ex. No. 3-3
B6: Ac*-F-V-A-T-T-F-(N-Me)A-(p-Cl)F-(N-Me)A-N-A-P-C*-NH2 (peptide)
peptide: {CH2CO}-FVATTF[NMeA][Phe(4-Cl)][NMeA]NAPC-NH2
modifications: thioether N-13
SMILES: CC(C)[C@@H]1NC(=O)[C@H](Cc2ccccc2)NC(=O)CSC[C@@H](C(N)=O)NC(=O)[C@@H]2CCCN2C(=O)[C@H](C)NC(=O)[C@H](CC(N)=O)NC(=O)[C@H](C)N(C)C(=O)[C@H](Cc2ccc(Cl)cc2)NC(=O)[C@H](C)N(C)C(=O)[C@H](Cc2ccccc2)NC(=O)[C@H]([C@@H](C)O)NC(=O)[C@H]([C@@H](C)O)NC(=O)[C@H](C)NC1=O
notes: also called 2-5; Ex. No. 2-5
B7: Ac*-F-V-S-T-T-B-(N-Me)A-B-(N-Me)A-D-R-P-C*-NH2 (peptide)
peptide: {CH2CO}-FVSTT[Bip][NMeA][Bip][NMeA]DRPC-NH2
modifications: thioether N-13
SMILES: CC(C)[C@@H]1NC(=O)[C@H](Cc2ccccc2)NC(=O)CSC[C@@H](C(N)=O)NC(=O)[C@@H]2CCCN2C(=O)[C@H](CCCNC(=N)N)NC(=O)[C@H](CC(=O)O)NC(=O)[C@H](C)N(C)C(=O)[C@H](Cc2ccc(-c3ccccc3)cc2)NC(=O)[C@H](C)N(C)C(=O)[C@H](Cc2ccc(-c3ccccc3)cc2)NC(=O)[C@H]([C@@H](C)O)NC(=O)[C@H]([C@@H](C)O)NC(=O)[C@H](CO)NC1=O
notes: also called 2-4; Ex. No. 2-4
B8: Ac*-F-V-HomoSer-T-T-F-(N-Me)A-(p-Cl)F-(N-Me)A-D-A-P-C*-NH2 (peptide)
peptide: {CH2CO}-FV[hSer]TTF[NMeA][Phe(4-Cl)][NMeA]DAPC-NH2
modifications: thioether N-13
SMILES: CC(C)[C@@H]1NC(=O)[C@H](Cc2ccccc2)NC(=O)CSC[C@@H](C(N)=O)NC(=O)[C@@H]2CCCN2C(=O)[C@H](C)NC(=O)[C@H](CC(=O)O)NC(=O)[C@H](C)N(C)C(=O)[C@H](Cc2ccc(Cl)cc2)NC(=O)[C@H](C)N(C)C(=O)[C@H](Cc2ccccc2)NC(=O)[C@H]([C@@H](C)O)NC(=O)[C@H]([C@@H](C)O)NC(=O)[C@H](CCO)NC1=O
notes: also called 2-3; Ex. No. 2-3
B9: Ac*-F-E-N-T-T-F-(N-Me)A-B-(N-Me)A-A-S-P-C*-G-NH2 (peptide)
peptide: {CH2CO}-FENTTF[NMeA][Bip][NMeA]ASPCG-NH2
modifications: thioether N-13
SMILES: C[C@@H]1NC(=O)[C@H](C)N(C)C(=O)[C@H](Cc2ccc(-c3ccccc3)cc2)NC(=O)[C@H](C)N(C)C(=O)[C@H](Cc2ccccc2)NC(=O)[C@H]([C@@H](C)O)NC(=O)[C@H]([C@@H](C)O)NC(=O)[C@H](CC(N)=O)NC(=O)[C@H](CCC(=O)O)NC(=O)[C@H](Cc2ccccc2)NC(=O)CSC[C@@H](C(=O)NCC(N)=O)NC(=O)[C@@H]2CCCN2C(=O)[C@H](CO)NC1=O
notes: also called 1-27; Ex. No. 1-27
B10: Ac*-F-V-P-T-T-F-(N-Me)A-B-(N-Me)A-E-A-P-C*-NHEt (peptide)
peptide: {CH2CO}-FVPTTF[NMeA][Bip][NMeA]EAPC-NHEt
modifications: thioether N-13
SMILES: CCNC(=O)[C@@H]1CSCC(=O)N[C@@H](Cc2ccccc2)C(=O)N[C@@H](C(C)C)C(=O)N2CCC[C@H]2C(=O)N[C@@H]([C@@H](C)O)C(=O)N[C@@H]([C@@H](C)O)C(=O)N[C@@H](Cc2ccccc2)C(=O)N(C)[C@@H](C)C(=O)N[C@@H](Cc2ccc(-c3ccccc3)cc2)C(=O)N(C)[C@@H](C)C(=O)N[C@@H](CCC(=O)O)C(=O)N[C@@H](C)C(=O)N2CCC[C@H]2C(=O)N1
notes: also called 3-2; Ex. No. 3-2
B11: Ac*-F-V-P-T-T-V-(N-Me)A-(p-Cl)F-(N-Me)A-E-A-P-C*-NH2 (peptide)
peptide: {CH2CO}-FVPTTV[NMeA][Phe(4-Cl)][NMeA]EAPC-NH2
modifications: thioether N-13
SMILES: CC(C)[C@@H]1NC(=O)[C@H]([C@@H](C)O)NC(=O)[C@H]([C@@H](C)O)NC(=O)[C@@H]2CCCN2C(=O)[C@H](C(C)C)NC(=O)[C@H](Cc2ccccc2)NC(=O)CSC[C@@H](C(N)=O)NC(=O)[C@@H]2CCCN2C(=O)[C@H](C)NC(=O)[C@H](CCC(=O)O)NC(=O)[C@H](C)N(C)C(=O)[C@H](Cc2ccc(Cl)cc2)NC(=O)[C@H](C)N(C)C1=O
notes: also called 2-6; Ex. No. 2-6
B12: Ac*-F-V-P-T-T-F-(N-Me)A-(p-Cl)F-(N-Me)A-P-A-P-C*-NH2 (peptide)
peptide: {CH2CO}-FVPTTF[NMeA][Phe(4-Cl)][NMeA]PAPC-NH2
modifications: thioether N-13
SMILES: CC(C)[C@@H]1NC(=O)[C@H](Cc2ccccc2)NC(=O)CSC[C@@H](C(N)=O)NC(=O)[C@@H]2CCCN2C(=O)[C@H](C)NC(=O)[C@@H]2CCCN2C(=O)[C@H](C)N(C)C(=O)[C@H](Cc2ccc(Cl)cc2)NC(=O)[C@H](C)N(C)C(=O)[C@H](Cc2ccccc2)NC(=O)[C@H]([C@@H](C)O)NC(=O)[C@H]([C@@H](C)O)NC(=O)[C@@H]2CCCN2C1=O
notes: also called 2-1; Ex. No. 2-1
B13: Ac*-F-V-P-T-T-F-(N-Me)A-(p-Cl)F-(N-Me)A-D-A-P-C*-NH2 (peptide)
peptide: {CH2CO}-FVPTTF[NMeA][Phe(4-Cl)][NMeA]DAPC-NH2
modifications: thioether N-13
SMILES: CC(C)[C@@H]1NC(=O)[C@H](Cc2ccccc2)NC(=O)CSC[C@@H](C(N)=O)NC(=O)[C@@H]2CCCN2C(=O)[C@H](C)NC(=O)[C@H](CC(=O)O)NC(=O)[C@H](C)N(C)C(=O)[C@H](Cc2ccc(Cl)cc2)NC(=O)[C@H](C)N(C)C(=O)[C@H](Cc2ccccc2)NC(=O)[C@H]([C@@H](C)O)NC(=O)[C@H]([C@@H](C)O)NC(=O)[C@@H]2CCCN2C1=O
notes: also called 2-2; Ex. No. 2-2
B14: Ac*-F-V-N-T-T-F-(N-Me)A-B-(N-Me)A-(N-Me)E-A-P-C*-NHEt (peptide)
peptide: {CH2CO}-FVNTTF[NMeA][Bip][NMeA][NMeE]APC-NHEt
modifications: thioether N-13
SMILES: CCNC(=O)[C@@H]1CSCC(=O)N[C@@H](Cc2ccccc2)C(=O)N[C@@H](C(C)C)C(=O)N[C@@H](CC(N)=O)C(=O)N[C@@H]([C@@H](C)O)C(=O)N[C@@H]([C@@H](C)O)C(=O)N[C@@H](Cc2ccccc2)C(=O)N(C)[C@@H](C)C(=O)N[C@@H](Cc2ccc(-c3ccccc3)cc2)C(=O)N(C)[C@@H](C)C(=O)N(C)[C@@H](CCC(=O)O)C(=O)N[C@@H](C)C(=O)N2CCC[C@H]2C(=O)N1
notes: also called 3-1; Ex. No. 3-1
B15: Ac*-F-V-N-T-T-A-(N-Me)F-B-(N-Me)A-Q-A-P-C*-G-NH2 (peptide)
peptide: {CH2CO}-FVNTTA[NMeF][Bip][NMeA]QAPCG-NH2
modifications: thioether N-13
SMILES: CC(C)[C@@H]1NC(=O)[C@H](Cc2ccccc2)NC(=O)CSC[C@@H](C(=O)NCC(N)=O)NC(=O)[C@@H]2CCCN2C(=O)[C@H](C)NC(=O)[C@H](CCC(N)=O)NC(=O)[C@H](C)N(C)C(=O)[C@H](Cc2ccc(-c3ccccc3)cc2)NC(=O)[C@H](Cc2ccccc2)N(C)C(=O)[C@H](C)NC(=O)[C@H]([C@@H](C)O)NC(=O)[C@H]([C@@H](C)O)NC(=O)[C@H](CC(N)=O)NC1=O
notes: also called 1-18; Ex. No. 1-18
B16: Ac*-F-V-D-T-T-A-(N-Me)F-B-(N-Me)A-E-A-P-C*-G-NH2 (peptide)
peptide: {CH2CO}-FVDTTA[NMeF][Bip][NMeA]EAPCG-NH2
modifications: thioether N-13
SMILES: CC(C)[C@@H]1NC(=O)[C@H](Cc2ccccc2)NC(=O)CSC[C@@H](C(=O)NCC(N)=O)NC(=O)[C@@H]2CCCN2C(=O)[C@H](C)NC(=O)[C@H](CCC(=O)O)NC(=O)[C@H](C)N(C)C(=O)[C@H](Cc2ccc(-c3ccccc3)cc2)NC(=O)[C@H](Cc2ccccc2)N(C)C(=O)[C@H](C)NC(=O)[C@H]([C@@H](C)O)NC(=O)[C@H]([C@@H](C)O)NC(=O)[C@H](CC(=O)O)NC1=O
notes: also called 1-16; Ex. No. 1-16
B17: Ac*-F-V-P-T-T-A-(N-Me)F-B-(N-Me)A-E-A-P-C*-G-NH2 (peptide)
peptide: {CH2CO}-FVPTTA[NMeF][Bip][NMeA]EAPCG-NH2
modifications: thioether N-13; not fully specified
notes: The three-letter form of the same entry prints L-Arg at position 11 where the one-letter form prints A; also called 1-21; Ex. No. 1-21

Target: T1, Human PCSK9 Alexa Fluor 647 (human, UniProt Q8NBP7 31-692, limits assumed, Alexa Fluor 647 label (site not stated))
T1 construct: Labelled tracer of the TR-FRET assay, 16 nM stock; also called proprotein convertase subtilisin/kexin type 9
Assay: TR-FRET competition: PCSK9-Alexa Fluor 647 vs LDLR ECD-Eu kryptate
Protocol: A Proxi plate-low volume assay plate was used for the assay. […] Following a 30 minute incubation, 5 uL of 4 nM Human LDLR extracellular domain-Europium Kryptate was added and the mixture was incubated for an additional 2 hours.
The TR-FRET signal was measured on an EnVision or PheraStar instrument with a 60 μs delay, 330 nm excitation and 665 nm emission (FRET), and 330 nm excitation and 615 nm (Europium). The FRET ratio (FRET/Europium) was used for calculations.

T1 sequence (Q8NBP7 31-692 limits assumed): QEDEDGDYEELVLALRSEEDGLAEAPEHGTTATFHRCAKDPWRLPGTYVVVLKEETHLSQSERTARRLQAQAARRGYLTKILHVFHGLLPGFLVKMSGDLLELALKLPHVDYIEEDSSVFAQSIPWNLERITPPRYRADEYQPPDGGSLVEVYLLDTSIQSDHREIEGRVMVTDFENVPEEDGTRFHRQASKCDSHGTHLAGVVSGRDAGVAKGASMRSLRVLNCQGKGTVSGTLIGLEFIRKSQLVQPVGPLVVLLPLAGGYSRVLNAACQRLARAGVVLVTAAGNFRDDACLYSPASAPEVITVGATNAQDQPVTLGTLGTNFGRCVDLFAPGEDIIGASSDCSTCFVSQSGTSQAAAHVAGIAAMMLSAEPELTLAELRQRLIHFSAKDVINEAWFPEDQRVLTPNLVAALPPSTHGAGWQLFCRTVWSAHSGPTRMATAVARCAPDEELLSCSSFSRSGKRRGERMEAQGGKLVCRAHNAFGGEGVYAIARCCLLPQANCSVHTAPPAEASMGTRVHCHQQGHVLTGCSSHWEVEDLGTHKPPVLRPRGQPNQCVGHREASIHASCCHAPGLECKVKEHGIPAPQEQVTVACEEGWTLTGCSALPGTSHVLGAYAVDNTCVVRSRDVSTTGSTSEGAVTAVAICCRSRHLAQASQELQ

Row | Binder | IC50 [nM] | Maximum % inhibition [%]
1 | B1 | 17 | 91
2 | B2 | 12 | 49
3 | B3 | 22 | 36
4 | B4 | 6.8 | 70
5 | B5 | 2.2 | –
6 | B6 | 1.1 | 46
7 | B7 | 1.8 | 28
8 | B8 | 0.04 | 75
9 | B9 | 410 | 55
10 | B10 | 4.2 | 83
11 | B11 | 5.4 | 83
12 | B12 | 11.5 | 50
13 | B13 | 0.4 | 72
14 | B14 | 85 | 61
15 | B15 | 11 | 53
16 | B16 | 7.4 | 91
17 | B17 | 7.2 | 81
